From publication PMC8287961

Target: KAP1 (UniProt Q13263)
Assay: GFP-Trap IP from nuclear lysate, coomassie gel
Details: reference: GFP-HP1β wild type; sites S89,S91

binding against the reference: weaker
Substance: HP1β (from UniProt P83917) GFP-HP1β S89/91A
